Values of other authors, collected in publication PMC3290099.
pKd: −log10 of the molar value.

Biological target: CIB1 (Homo sapiens) (UniProt Q99828)
Sequence of UniProt Q99828 (Q99828 2-191): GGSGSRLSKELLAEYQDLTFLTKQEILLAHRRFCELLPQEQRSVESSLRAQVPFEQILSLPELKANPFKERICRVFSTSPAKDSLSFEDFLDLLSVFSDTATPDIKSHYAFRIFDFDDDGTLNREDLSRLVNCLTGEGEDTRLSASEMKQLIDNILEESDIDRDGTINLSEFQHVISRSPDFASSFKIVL

Integrin αIIb (from UniProt P08514)
pKd: 5.85
